Results from patent US20140271607A1.
Values belong to the molecule of their own block, whether it stands above or below them.

Tests used:
[1] = biological target: FX (blood coagulation factor X); test: cell-based or functional assay
[2] = biological target: T1, rsTF (recombinant soluble tissue factor), P13726
T1 chain: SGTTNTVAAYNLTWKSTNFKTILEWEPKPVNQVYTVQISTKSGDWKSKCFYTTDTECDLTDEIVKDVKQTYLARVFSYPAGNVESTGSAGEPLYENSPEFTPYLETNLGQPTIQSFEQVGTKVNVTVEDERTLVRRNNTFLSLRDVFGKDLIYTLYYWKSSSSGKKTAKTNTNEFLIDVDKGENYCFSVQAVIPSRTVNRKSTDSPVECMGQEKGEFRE

[3] = biological target: FX (blood coagulation factor X)
[4] = biological target: rsTF (recombinant soluble tissue factor) (UniProt P13726); test: cell-based or functional assay

EC50 (ng/mL), chromogenic assay (COASET) [1]: 6.06 ng/mL
Molecule: FacVII-ATKAVC-40 kDa PEG conjugate (C-terminal PEGylated) (from UniProt P08709 1-466) (enzyme)

EC50 (ng/mL), chromogenic assay (COASET) [1]: 1.38 ng/mL | EC50 (ng/mL), chromogenic assay (COASET), Run 1 [1]: 1.62 ng/mL | EC50 (ng/mL), chromogenic assay (COASET), Run 2 [1]: 1.67 ng/mL
B2: blood coagulation factor VII (Factor VII, FacVII), native (protein)
chain: AVFVTQEEAHGVLHRRRRANAFLEELRPGSLERECKEEQCSFEEAREIFKDAERTKLFWISYSDGDQCASSPCQNGGSCKDQLQSYICFCLPAFEGRNCETHKDDQLICVNENGGCEQYCSDHTGTKRSCRCHEGYSLLADGVSCTPTVEYPCGKIPILEKRNASKPQGRIVGGKVCPKGECPWQVLLLVNGAQLCGGTLINTIWVVSAAHCFDKIKNWRNLIAVLGEHDLSEHDGDEQSRRVAQVIIPSTYVPGTTNHDIALLRLHQPVVLTDHVVPLCLPERTFSERTLAFVRFSLVSGWGQLLDRGATALELMVLNVPRLMTQDCLQQSRKVGDSPNITEYMFCAGYSDGSKDSCKGDSGGPHATHYRGTWYLTGIVSWGQGCATVGHFGVYTRVSQYIEWLQKLMRSEPRPGVLLRAPFP
Relative activity, %, chromogenic assay (COASET) [3]: 100% | Relative activity, %, chromogenic assay (COASET), Run 1 [3]: 100% | Relative activity, %, chromogenic assay (COASET), Run 2 [3]: 100%

EC50 (ng/mL), chromogenic assay (COASET) [1]: 12.2 ng/mL
B3: FacVII-40 kDa PEG (N-terminal PEGylated FacVII) (protein)
chain: AVFVTQEEAHGVLHRRRRANAFLEELRPGSLERECKEEQCSFEEAREIFKDAERTKLFWISYSDGDQCASSPCQNGGSCKDQLQSYICFCLPAFEGRNCETHKDDQLICVNENGGCEQYCSDHTGTKRSCRCHEGYSLLADGVSCTPTVEYPCGKIPILEKRNASKPQGRIVGGKVCPKGECPWQVLLLVNGAQLCGGTLINTIWVVSAAHCFDKIKNWRNLIAVLGEHDLSEHDGDEQSRRVAQVIIPSTYVPGTTNHDIALLRLHQPVVLTDHVVPLCLPERTFSERTLAFVRFSLVSGWGQLLDRGATALELMVLNVPRLMTQDCLQQSRKVGDSPNITEYMFCAGYSDGSKDSCKGDSGGPHATHYRGTWYLTGIVSWGQGCATVGHFGVYTRVSQYIEWLQKLMRSEPRPGVLLRAPFP
Relative activity, % (compared to FacVII), chromogenic assay (COASET) [3]: 11.3%

Potency (IU/mL), clotting assay (StaclotVIIa-rTF) [4]: 1990 IU/mL | Residual activity, % (compared to FacVIIa-ATKAVC), clotting assay (StaclotVIIa-rTF) [4]: 44.7% | Specific activity (IU/mg as FacVIIa), clotting assay (StaclotVIIa-rTF) [4]: 20600 IU/mg
B4: FacVIIa-ATKAVC-PEG-Fc complex (protein, part only; not given: Fc region and PEG linker, not shown: a dimerising Fc or GST)
chain: MVSQALRLLCLLLGLQGCLAAVFVTQEEAHGVLHRRRRANAFLEELRPGSLERECKEEQCSFEEAREIFKDAERTKLFWISYSDGDQCASSPCQNGGSCKDQLQSYICFCLPAFEGRNCETHKDDQLICVNENGGCEQYCSDHTGTKRSCRCHEGYSLLADGVSCTPTVEYPCGKIPILEKRNASKPQGRIVGGKVCPKGECPWQVLLLVNGAQLCGGTLINTIWVVSAAHCFDKIKNWRNLIAVLGEHDLSEHDGDEQSRRVAQVIIPSTYVPGTTNHDIALLRLHQPVVLTDHVVPLCLPERTFSERTLAFVRFSLVSGWGQLLDRGATALELMVLNVPRLMTQDCLQQSRKVGDSPNITEYMFCAGYSDGSKDSCKGDSGGPHATHYRGTWYLTGIVSWGQGCATVGHFGVYTRVSQYIEWLQKLMRSEPRPGVLLRAPFPATKAVC
modifications: C-terminal cysteine linked to the maleimide end of 10 kDa PEG

Further lines, the molecule ahead of its results:

Molecule: FacVII-ATKAVC (FacVII derivative with SOD1 residues 1-6, ATKAVC, at the C-terminus) (from UniProt P08709 1-466) (enzyme)
EC50 (ng/mL), chromogenic assay (COASET) [1]: 1.75 ng/mL | EC50 (ng/mL), chromogenic assay (COASET), Run 1 [1]: 1.36 ng/mL | EC50 (ng/mL), chromogenic assay (COASET), Run 2 [1]: 1.16 ng/mL

B1: FacVIIa-ATKAVC (activated FacVII-ATKAVC derivative) (protein)
chain: AVFVTQEEAHGVLHRRRRANAFLEELRPGSLERECKEEQCSFEEAREIFKDAERTKLFWISYSDGDQCASSPCQNGGSCKDQLQSYICFCLPAFEGRNCETHKDDQLICVNENGGCEQYCSDHTGTKRSCRCHEGYSLLADGVSCTPTVEYPCGKIPILEKRNASKPQGRIVGGKVCPKGECPWQVLLLVNGAQLCGGTLINTIWVVSAAHCFDKIKNWRNLIAVLGEHDLSEHDGDEQSRRVAQVIIPSTYVPGTTNHDIALLRLHQPVVLTDHVVPLCLPERTFSERTLAFVRFSLVSGWGQLLDRGATALELMVLNVPRLMTQDCLQQSRKVGDSPNITEYMFCAGYSDGSKDSCKGDSGGPHATHYRGTWYLTGIVSWGQGCATVGHFGVYTRVSQYIEWLQKLMRSEPRPGVLLRAPFPATKAVC
Potency (IU/mL), clotting assay (StaclotVIIa-rTF) [2]: 16700 IU/mL | Specific activity (IU/mg as FacVIIa), clotting assay (StaclotVIIa-rTF) [2]: 46100 IU/mg
